Key:
p-NP-C2 = conditions: pH 9; 30 °C
p-NP-C4 = conditions: pH 9; 30 °C
p-NP-C6 = conditions: pH 9; 30 °C
PET = test: Proxy for plastic degradation [Released monomer concentration (HPLC/LC-MS) (BHET)]; conditions: pH 8

Row | Protein | Km (p-NP-C2) [µM] | kcat (p-NP-C2) [s⁻¹] | kcat/Km (p-NP-C2) [M⁻¹ s⁻¹] | Km (p-NP-C4) [µM] | kcat (p-NP-C4) [s⁻¹] | kcat/Km (p-NP-C4) [M⁻¹ s⁻¹] | Km (p-NP-C6) [µM] | kcat (p-NP-C6) [s⁻¹] | kcat/Km (p-NP-C6) [M⁻¹ s⁻¹] | Proxy for plastic degradation (PET) [mM]
1 | unnamed (protein) MALDPGAAALLQQMAQAGVPPFNQMTVQQARQSMTGLAGTAPKYPVAKVEDRTIPGPAGQIPVRIYWPISGQKVGLVVYYHGGGWVICDLETHDGTCRQLANASDCIVMSVDYRLAPEHKFPAAVEDCYAAAAWAAENAATFGVDPSRLVVAGDSAGGNLAAVVALLAKERGGPRLAHQVLIYPVTDYSFDRPSYRENAEGYLLTRDAMEWFWRHYLNSDADGQNPLASPLRAPDLRGLPSATVITAEYDPLRDEGEAYAQRLMEAGVPTTCVRYLGQIHGFVTLEHVLPAGRQALLALGATIKGVLTGALGGQPAAA | 220 | 57.1 | 260000 | 80 | 8.77 | 110000 | 90 | 0.318 | 3530 | 0.075
2 | unnamed (protein) MALYPSARWVLDRMAERGTRPFNEVPVERARQQFDAMMAGAPRPEVARTEDRTVPGPAGDIPVRIYWPQQQTLPLLLVYFHGGGWIMGSIESHDPTCRAIANVAGCIVVSVGYRLAPEHKFPEPLEDCYAAVRWAEENAASLGADPSLLAVGGDSAGGNLAAAVSLLARDRGGPRLAHQVLAYPVLSHGAAFPSYEENADGYFLTREMMLYCWRQYLRDEKDGDDPYASPLKASELSGLPTATIITAEHDPLRDEAEAYGVRLAQAGVPNYCLRYVGMIHGFLSLDNLLPPGRHALWSVATGLRLAATETHKRA | 50 | 42 | 839000 | 60 | 66.2 | 1.1e+06 | 40 | 1.45 | 36200 | 0.126
